Assay results as given in patent US20140287419A1, “Compositions Having Dicamba Decarboxylase Activity and Methods of Use” (priority 2013, published 2014).

Assay: 14C assay with IPTG-induced recombinant E. coli cells (14CO2 capture from [14C]-carboxyl-labeled dicamba)
Settings: for Dicamba Decarboxylase Activity: IPTG-induced recombinant E. coli cells, [14C]-carboxyl-labeled dicamba, 14CO2 capture; for Enzymatic Detection level: dicamba decarboxylation activity of the protein of the given SEQ ID NO

Row | Molecule | Dicamba Decarboxylase Activity | Enzymatic Detection level
1 | 88 (protein, listed as Starkeya novella) MARKIALEEHFTTPELAGKYVARPTQSDALFADIERRLADFDELRLEMMDRAEIDLMVLSVTTPGVQGVRDTGEAIRLARGANDFLAREVQKRPSRYAGFAHLAMQDAEAAATELERAVRELGFRGALINGQTNGHYLDEDQYAPFWERVQELDVPVYLHPGNMADSPAMFAHRPELGGPIWAWTAETAAHALRLVFGGTFTRFPGAKVILGHMGETLPFLLWRLDSRREFDLGEKLAPDALPSAIIKRNIAVTTSGVCDPAPLVAALQALSDDNVMFSVDYPYEDPQLASKFIETAPIGEETRAKVCHGNAERLLGL | High | High
2 | 87 (protein, listed as Novosphingobium sp.) MASDIATAADLQTGGRQGYLRIATEEAFATRDQIDVYLRMVRDGTADRGMTSLWGFYAQSPSARATQIIERLLDLGEQRLADMDAAGIDKAVLALTSPGVQPLLDMEEARRIAGNANDRLAERCAAHPDRFIGMTAVAPQDPQWSAREILRGATQLGFKGVQINSHTQGRYLDEPFFDPIFRALGDVGQPLYIHPGTPPDSMIGPLLDAGLDGAIYGFGVETGMHLLRLITAGIFDRYPDLQIMVGHMGEALPYWLYRLDYMHQAGIRSQRYERMRPLKRTIAGYFRSNVLVTCSGMAWEPAIQFARQVMGEDRVMYAMDYPYQYEADEVRALDVMDLSPESKRKFFQTNAERWFDL | High | High
3 | 82 (protein, listed as Rhodopseudomonas palustris) MAQNETPVIAIEEHYWDPEMVARFPAGENASPFSTLLTELGDVRLRAMDEAGIDVQVLSHGAPAAQKLPPDVAPELTRRVNDRLAEACARFPNRFAAFAALPTPAPEAAARELERCVRDLGFKGAMIHGLTNGLFIDDKRFWPIFEVAEKLDVPIYLHPSVPHADVTRYYYDDYAREFPTVIRPAWGFTVETATQAIRLILSRALESYPRLQIILGHLGETLPFLLWRINQALARPGQTPLDFRKQFCDHFHVTTSGFFSTPALICTMLELGIDRIMFAVDYPYVVNRDGTDWVQQLQISPDDKRKLVGGNARRLLKL | Low | Low
4 | 7 (protein, listed as Legionella pneumophila) MAIVDFETHFITEACIDYLTQRQEVPKLVPELNGAYTMCFTPDVSLFHTSALMEELLSLNEQRLAIMDQAGVTIQVLSLTTINGIDSCPGDENKSTALAREVNDQLYSAIQRHPERFKGFASISPYDVKEGVKELERAISQLGFVGWLTHSNFGEDNYLDDKTYWPLLEAAEGLNIPIYLHPNVPIMREFGKYGFALGGSALGFEFDTALCLMRMILGGVFDAFPKLKIMLGHLGETMPFLMERLDHLYRIPDLKAYRPSIQRIPSEVLRQNVYITTSGRFFVPALRYVLEVMGEDRVLFASDYPMESLLDATRFIQDSDLSNQTKQKIFSINAKNLNLI | No | No
5 | 84 (protein, listed as Mycobacterium rhodesiae) MASLIALEEHYAWDPASEGNVVATWLRANNGVAYDRLYDRGPLRIEQMDAAGIDFQILSLFDPGVQDEVDAVRAVDLARRANDDLAESVRANPSRFGGFATLATQQPDAAVAEFDRAVTELGLVGGLINGHCQGRYLDDPAYEALFSRAEALGAPIYLHPTTPHPAVMDAWFAPYVGDGLHLASWGFAAETGTHVLRLIYSGLFDKFPRLQMIIGHLGEMLPFAAYRIDRYYGLGGGGTGHTLQHLPSDYLRNNFHVTTSGNFCSPALDCTLDVMGADRVMFSVDYPMDDNQTGADFLASYPMDDTNRRKVASENALRLFGDRIPAALRN | Low | Low
6 | 91 (protein, listed as Botryotinia fuckeliana) MASFVCNFGKAALATLLLTPSISAADYTPQETVLNSGRPTFYDASTSIPGKIALEEHVGNDLLNGLYTVPYYPNTNEPQYSDSVYIADVGEKMLDIPSRIANMDAANISISVLTFGGPGIQGVFNATYATYAAGYVNDYLYKNYKNNANYTGRFEFWCSNALQEPSKAATELERCVKELGGVGSFVGGYTNNGGINGTANDIVYLDDPSMEPFLEKVVELDVPIYLHPRMPAPSQLLSVKGYEFLGSSPWGFSSETGAHALRLMVSGTLDKYPTLKIVLGHCGEGLPFFLPRIDQRLRHFKKELFNNTLTMEEYWLRNFYVTTAGVQDAGTLVDTIKRTGEDRVMFSVDYPFEDTVEIAGWFDRLEMNTLTKTKLAYENAKALLKLTCYVDAEKRPRIFNKHHVDDIIKHTHSPCIWTLFH | Low | Low
7 | 80 (protein, listed as Cordyceps militaris) MAAASTPVVVDIHTHMYPPSYIAMLEKRQTIPLVRTFPQADEPRLILLSSELAALDAALADPAAKLPGRPLSTHFASLAQKMHFMDTNGIRVSVISLANPWFDFLAPDEAPGIADAVNAEFSDMCAQHVGRLFFFAALPLSAPVDAVKASIERVKNLKYCRGIILGTSGLGKGLDDPHLLPVFEAVADAKLLVFLHPHYGLPNEVYGPRSEEYGHVLPLALGFPMETTIAVARMYMAGVFDHVRNLQMLLAHSGGTLPFLAGRIESCIVHDGHLVKTGKVPKDRRTIWTVLKEQIYLDAVIYSEVGLQAAIASSGADRLMFGTDHPFFPPIEEDVQGPWDSSRLNAQAVIKAVGEGSSDAAAVMGLNAVRVLSLKAE | Low | Low
8 | 81 (protein, listed as Verticillium dahliae) MAASTKPKVVDIHTHMYPPSYIDILTSRTAIPVVRTFPQAADPRLILLDAEQQALDAALQDPTAKPPGRPLTSHYASLDQKIHFMDTHSIDISVVSLANPWLDFIEPKEAAATARSVNDEFEAMCASQPGRLFFFAALPLTAPLPALLEAVRHVAELEHCRGVILGTSGLGSGLDDPELVPVLEAVAAAALTVFLHPHYGLPNDVWGPRASAEYGHVLPLALGFPMETTIAVARMYLAGVFDRVPALRMLLAHSGGTLPFLAGRIESCILHDGQLVAEGKVGAARRTIWDVLREQVYLDAVIYSEIGLKAAIAASGGADRLMFGTDHPFFPPLGTDEQAKKESRINAGGSRPMITGNAMINGHGGLCNHITQSDYQDVVL | High | High
9 | 83 (protein, listed as Mycobacterium rhodesiae) MALIALEEHYAWSPVSAGNVVGSWLETHNVTAYQRLYDRGPLRLEQMDAAGIDFQILSLFDPGVQDDDDTARAVENARRANDDLAETVRAAPDRFGGFATLAPQDPDAAAAELERAVGELGLVGGLINGHTHGRYLDDPAYLGLFECAQRLGVPIYLHPTTPHPAVMDAWFAPYVKDGLHLASWGFAAETGTHALRLIYSGLFDTFPRLQMILGHLGEMLPYAAYRIDRYYGLGGGDDGGRLARLPSEYLRDNFHVTTSGNFNPVAFACALDVMGPDRLMFSVDYPMDDNVTGAEFLRNLEVDDDVRRKVAGENALQLFGDKIPRR | Low | Low
10 | 90 (protein, Pyrenophora tritici-repentis) MAATIDRVLYLGNATQRRYTSATVSVPRIFGKVALEEHVGTSIWAKYNLTPPANAVVGVLNRPPTLPNTLDTIARLDDINGRLSSMNHSGIGYVIVSLSSPGIQGVHDTALAIKFSTDINDELYLKYANAYPDKFAFFATVPMQDPVAAASELERAVSLLGAKGAAINGYTDIGPPGNSTTRYLDDPINAPFWSKVAALNVPIYLHPRAPPPSQQLVYNYPNNSLSAYPGLVTGGFAYGAETAVHALRLMLSGLFDTHPNIQIILGHAAEGLPFLIHRSDTQLAAEVPGTNGPYKRPLRYYLRNNFYATLSGVRRLSTTQCTLAEMGEERVLFSVDYPFQSNEDAADWFDGVEGMSVETKRKVARGNARRLFNLTVDLDERQIDGDFM | Low | Low
11 | 86 (protein, listed as Sphingopyxis alaskensis) MALGASVASREASAQMAKAPMRKIATEEAFATPELAKAWLEIARSEPNSSLDIPTGILSIFDNPRPGSNQDRFRRQLLDVDAERIRDMDEAGVDMQLLSVTIPGVQIFEPARAGELAVTTNDHLAAAIARRPTRFAGLACFAPHDPVQATREMERAVNALGLKGFIVNSHTQDLYLDDPRFAPVLEAAQSLDCPIYLHPRAPSNGMAAPFRDYSMGGSIWGFGVEAGTHAVRMILSGVFDRYPRLRIVLGHMGEALPFWMWRLDHMAARRAKDGRMKPLSLAPSEYFKRNFAVTTSGFESPDVLDLVIKVAGIENIMWAIDYPYESSRDAVTFIEGADLTASQRASIFHRNAVRHFRLS | Low | Low
12 | 89 (protein, listed as Erwinia billingiae) MATNRRDFLKNATAVMAGSTVFAGSSHFASAAAVEPAAVQPPRRIIALEEHFMLPEFVGYLHETQQNLRNGLVDKVVTPLSDFGKGRLEIMDKNGVDFAVLSLSGPGVQAEPDRVKAVRLARYANDKLATEMQKNPRRYGGFAHLAMQDPLAAANELERCVKQLHMQGGMINGETDGLYLDDRRYDVFWERVEALNVPIYIHPGNPPDYPHMFAGHPEMWGPVWSWAVETCSHALRLIFSGTFDRYPGARVILGHMGETLPIQLWRLDSRYQIANQTFAIKHPPSWYAKKNITITTSGVCNDAALRCALDSMGSENVMFSIDYPFESTEIAVNWLKTANITEQERNAVAWGNATSILRLGA | High | High
13 | 85 (protein, listed as Maritimibacter alkaliphilus) MAADRKPGLVSVEEGFMIPEVVAELSRIAGGVPSMKSGPIAGPFMDDLLDIGKGRVARMDADGVAVQILALAAPGVQKFDPDTALALSRLTNDRLAEAIAAHPARFGGLAAAPPQAAREGAKELDRAITTLGLNGLIVNSHTNDLYLDDPSFWPLLEAAEALDVPVYLHPREPAAGIEGGLMAMTGFTVGWAYAVETGTHLLRMIAAGVFDRFPRLRIVLGHLGEMIPFMLDRIDNRYPFEMGVTGAKPLPRKPSDYFRDHVTVATSGMNFNAPMRAAIEVLGADKVMFAADYPMERQDEEVAKFAALDLTPDERKRIGEDNARRVFGL | Low | Low
14 | 92 (protein, listed as Chitinophaga pinensis) MARIVTLEEHVSFPEMTALLPEEILKNRKQSGAALQMQEKLADITGERLTSMKAAGISMQVLSVENTDVYLLPDSLAPAFAAKYNDLLADKISSHSDAFAAFAMLPMTVPEAAADELERAVKTHGFCGAMIKGLINGVFLDAPKFAPVFACAEKLGVPLYIHPGIPPKEVIDAYYSNVGDTKGPNEAIACYGWGWHSETAIHILRLLAAGIFDKYPQLNIIIGHMGEMLPMMWERSNRVFQPGNNGKNQRTLIETFRKQLYITTSGIFTQPPLQIAIDTIGIDNILFSIDYPFSSNQMGIDFLTKAALPAEQLAKMAHGNADRILKF | Yes | High
